{
  "source": "patent US20100015130",
  "key": {"[1]": {"biological_target": "T1, GST-tagged mouse DISC1 fragment 221-355aa (UniProt Q811T9)", "T1 sequence": "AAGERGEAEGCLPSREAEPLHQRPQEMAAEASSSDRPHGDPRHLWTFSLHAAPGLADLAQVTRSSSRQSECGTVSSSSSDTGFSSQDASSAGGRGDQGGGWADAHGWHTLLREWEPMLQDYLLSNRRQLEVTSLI"}, "[2]": {"biological_target": "T2, GST-tagged mouse DISC1 fragment 1-220aa (UniProt Q811T9)", "T2 sequence": "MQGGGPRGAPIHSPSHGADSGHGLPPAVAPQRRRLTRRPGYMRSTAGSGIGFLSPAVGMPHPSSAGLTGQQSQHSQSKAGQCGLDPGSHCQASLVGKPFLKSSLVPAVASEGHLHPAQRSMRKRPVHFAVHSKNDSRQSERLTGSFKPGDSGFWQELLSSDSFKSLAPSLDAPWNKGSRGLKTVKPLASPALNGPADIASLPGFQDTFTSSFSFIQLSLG"}, "[3]": {"biological_target": "T3, GST-tagged mouse DISC1 fragment 356-595aa (UniProt Q811T9)", "T3 sequence": "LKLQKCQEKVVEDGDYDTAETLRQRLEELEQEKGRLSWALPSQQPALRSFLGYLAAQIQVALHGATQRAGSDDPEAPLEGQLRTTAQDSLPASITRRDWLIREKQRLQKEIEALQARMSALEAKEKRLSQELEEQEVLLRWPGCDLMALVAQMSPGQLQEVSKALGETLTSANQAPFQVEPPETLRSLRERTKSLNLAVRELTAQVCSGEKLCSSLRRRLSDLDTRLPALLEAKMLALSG"}, "[4]": {"biological_target": "T4, GST-tagged mouse DISC1 fragment 596-852aa (UniProt Q811T9)", "T4 sequence": "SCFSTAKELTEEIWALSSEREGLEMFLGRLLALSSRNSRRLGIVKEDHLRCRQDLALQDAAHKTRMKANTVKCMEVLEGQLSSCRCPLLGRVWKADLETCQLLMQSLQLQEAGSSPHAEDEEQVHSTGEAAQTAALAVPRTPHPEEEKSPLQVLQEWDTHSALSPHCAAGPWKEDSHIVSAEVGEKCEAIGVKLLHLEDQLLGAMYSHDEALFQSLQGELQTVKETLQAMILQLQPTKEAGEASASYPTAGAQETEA"}},
  "data": [
    {"substance": "GST-GSK3β (recombinant, Active Motif)", "values": [
      {"measurement": "GSK3β autophosphorylation (Y216), in vitro kinase assay", "setting": "[1]", "value": "at higher concentrations (2 µM), DISC1 fragments spanning 221-355 and 356-595 started to inhibit GSK3β autophosphorylation"},
      {"measurement": "in vitro kinase assay: GST-β-catenin phosphorylation, GST-axin phosphorylation and GSK3β autophosphorylation at Y216", "setting": "[1]", "value": "none of the other 3 DISC1 fragments, GST-p25, or GST-CASK proteins inhibited GSK3β activity at this concentration (0.5 µM)"},
      {"measurement": "GSK3β Y216 phosphorylation, dose response in vitro", "setting": "[2]", "value": "no inhibition of GSK3β Y216 phosphorylation was observed at 0.1 µM and the inhibition of phosphorylation plateaued at 1 µM"},
      {"measurement": "in vitro kinase assay: GST-β-catenin phosphorylation, GST-axin phosphorylation and GSK3β autophosphorylation at Y216", "setting": "[2]", "value": "potently inhibited β-catenin, axin and GSK3β phosphorylation at 0.5 µM"},
      {"measurement": "GSK3β autophosphorylation (Y216), in vitro kinase assay", "setting": "[3]", "value": "at higher concentrations (2 µM), DISC1 fragments spanning 221-355 and 356-595 started to inhibit GSK3β autophosphorylation"},
      {"measurement": "in vitro kinase assay: GST-β-catenin phosphorylation, GST-axin phosphorylation and GSK3β autophosphorylation at Y216", "setting": "[3]", "value": "none of the other 3 DISC1 fragments, GST-p25, or GST-CASK proteins inhibited GSK3β activity at this concentration (0.5 µM)"},
      {"measurement": "in vitro kinase assay: GST-β-catenin phosphorylation, GST-axin phosphorylation and GSK3β autophosphorylation at Y216", "setting": "[4]", "value": "none of the other 3 DISC1 fragments, GST-p25, or GST-CASK proteins inhibited GSK3β activity at this concentration (0.5 µM)"}
    ]}
  ]
}
